From US20240309087A1 (SHANGHAI JUNSHI BIOSCIENCES, published 2024)

T1: recombinant cynomolgus monkey CD112R antigen (cynomolgus monkey, UniProt A0A2K5WVV8 1-322)
T1 construct: bought
T1 sequence: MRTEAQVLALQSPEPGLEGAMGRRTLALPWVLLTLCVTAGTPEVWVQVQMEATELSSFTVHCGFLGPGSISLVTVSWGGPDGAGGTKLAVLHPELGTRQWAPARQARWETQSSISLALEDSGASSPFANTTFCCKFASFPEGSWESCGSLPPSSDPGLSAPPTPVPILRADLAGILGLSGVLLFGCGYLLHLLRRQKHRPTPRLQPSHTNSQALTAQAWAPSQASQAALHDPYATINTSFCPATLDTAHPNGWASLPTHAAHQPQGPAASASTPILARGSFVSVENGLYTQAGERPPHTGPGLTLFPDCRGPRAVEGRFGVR

T2: human CD112R on CHO-CD112R cells (human, UniProt Q6DKI7 41-326)
T2 construct: whole, on cells; also called hCD112R; PVRIG
T2 sequence (looked up): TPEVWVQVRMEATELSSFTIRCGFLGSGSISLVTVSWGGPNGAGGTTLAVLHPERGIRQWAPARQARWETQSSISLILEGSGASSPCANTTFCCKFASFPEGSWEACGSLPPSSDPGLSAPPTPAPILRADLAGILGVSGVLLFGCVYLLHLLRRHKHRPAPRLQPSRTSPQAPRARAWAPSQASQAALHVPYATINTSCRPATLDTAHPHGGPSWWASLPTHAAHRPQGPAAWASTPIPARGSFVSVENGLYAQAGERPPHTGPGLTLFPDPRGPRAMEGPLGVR

T3: hCD112R mFC recombinant protein (human; murine, UniProt Q6DKI7 41-160)
T3 construct: range 41-160; expressed in 293E cells; also called hCD112R ECD mFC; hCD112R-ECD-mFC; not shown: murine IgG2a Fc domain (MX2-mFc vector)
T3 sequence (looked up): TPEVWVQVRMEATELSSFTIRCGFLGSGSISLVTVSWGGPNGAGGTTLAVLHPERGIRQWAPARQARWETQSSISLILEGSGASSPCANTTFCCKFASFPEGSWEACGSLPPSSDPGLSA

T4: human CD112R on Jurkat CD112R effector cells (human, UniProt Q6DKI7 1-326)
T4 sequence (looked up): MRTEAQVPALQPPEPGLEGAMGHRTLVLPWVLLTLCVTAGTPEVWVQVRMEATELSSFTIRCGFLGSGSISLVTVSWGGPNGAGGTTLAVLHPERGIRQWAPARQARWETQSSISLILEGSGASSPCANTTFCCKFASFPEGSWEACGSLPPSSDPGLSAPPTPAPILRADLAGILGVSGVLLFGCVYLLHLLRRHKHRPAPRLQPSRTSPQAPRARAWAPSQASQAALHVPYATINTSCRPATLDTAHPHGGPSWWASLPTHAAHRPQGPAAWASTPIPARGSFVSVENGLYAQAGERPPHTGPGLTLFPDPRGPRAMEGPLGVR


Columns and labels:
[1] = molecular target: T1, recombinant cynomolgus monkey CD112R …; assay: ELISA, coated cynomolgus monkey CD112R; EC50 Ref/EC50 antibody
Protocol: (§1) A plate was coated with a recombinant cynomolgus monkey CD112R antigen (Acrobiosystems, Cat No. PVG-C5259) at a fixed concentration, and the chimeric anti-CD112R antibodies diluted in a gradient (initial concentration: 1 μg/mL, 2.5-fold gradient dilution, 12 concentration gradients in total) were added to bind to the antigen. Horseradish peroxidase (HRP)-conjugated mouse anti-human IgG4 Fc (Southern Biotech, 9200-05) was subjected to a 5000-fold dilution and used as a detection antibody for detection. The color development was performed with 0.1 mg/mL TMB, and finally stopped with 2 M hydrochloric acid. The plate was read at 420 nm/620 nm. EC₅₀ was obtained by fitting with a four-parameter logistic regression (4PL) model.

[2] = molecular target: T2, human CD112R on CHO-CD112R cells; assay: FACS on CHO-CD112R cells; EC50 Ref/EC50 antibody
Protocol: (§2) CHO-CD112R cells (constructed in-house by Junshi, the amino acid sequence of CD112R in the construction of stable cell lines overexpressing CD112R comprises amino acids at positions Met1-Arg326 under NCBI accession No. Q6DKI7) overexpressing human CD112R were incubated with each of the chimeric anti-CD112R antibodies at different concentrations (initial concentration: 50 μg/mL, 5-fold dilution, 12 concentration gradients in total) at 4° C. for 30 min, and then washed and incubated with a fluorescence-labeled secondary antibody at 4° C. for 30 min in the dark. Finally, the cells were collected by using a flow cytometer (BD Canto II), and the fluorescent antibodies bound to the cell surface were detected. Raw data were analyzed by using FlowJo to obtain MFI values, the antibody dose-dependent binding curves were fitted by using GraphPad (FIG. 3, a and b) and EC₅₀ was calculated (Table 3). The positive control and the negative control were Ref (anti-CD112R antibody, University of Colorado, obtained by expression and purification according to the sequences in US20170240613) and anti-KLH hu-IgG4 antibody, respectively.

[3] = molecular target: T1, recombinant cynomolgus monkey CD112R …; assay: ELISA, coated cynomolgus monkey CD112R
Protocol: as §1

[4] = molecular target: T3, hCD112R mFC recombinant protein; assay: FACS competition, hCD112R mFc on CHO CD112 cells; ratio Ref/antibody
Protocol: (§3) Cells CHO CD112 overexpressing human CD112 were co-incubated with a hCD112R mFc protein solution (5 μg/mL) prepared in a staining buffer (PBS+1% FBS), and the chimeric anti-CD112R antibodies or the control antibodies at different concentrations (initial concentration: 100 μg/mL, 3-fold dilution, 10 concentration gradients) at 4° C. for 30 min. Unbound antibodies were then washed with a staining buffer and the cells were incubated with 1% (v/v) goat anti-mouse IgG Fc fluorescent secondary antibodies (Jackson ImmunoResearch) prepared in a staining buffer at 4° C. for 30 min in the dark. Finally, the cells were collected by using a flow cytometer (BD Canto II), and the fluorescent antibodies bound to the cell surface were detected. Raw data were analyzed by using FlowJo to obtain MFI values, and a four-parameter curve fitting was performed by using GraphPad Prism software to obtain IC₅₀ values. The positive control and the negative control were Ref (anti-CD112R antibody, University of Colorado, obtained by expression and purification according to the sequences in US20170240613) and the anti-KLH hu-IgG4 antibody, respectively.

[5] = molecular target: T3, hCD112R mFC recombinant protein; assay: FACS blocking: hCD112R mFc (5 µg/mL) binding to human CD112 on CHO CD112 cells, MFI-APC; unit from the axis (µg/mL), Table 8 says ng/ml
Protocol: as §3

[6] = molecular target: T4, human CD112R on Jurkat CD112R effector …; assay: cell-based or functional assay
[7] = molecular target: T2, human CD112R on CHO-CD112R cells; assay: FACS on CHO-CD112R cells
Protocol: as §2

[8] = molecular target: T3, hCD112R mFC recombinant protein; assay: FACS competition, hCD112R mFc on CHO CD112 cells
Protocol: as §3
As shown in FIG. 5 (a and b) and Table 8, the following 13 chimeric antibodies were all capable of effectively blocking the binding of the CD112R protein to CHO-CD112 cells.

Row | Binder | Relative activity (%) [1] [%] | Relative activity (%) [2] [%] | EC50 [3] [µg/mL] | Relative activity (%) [4] [%] | IC50 [5] [µg/mL] | EC50, CD112R/CD112 reporter [6] [µg/mL] | Relative activity (%), EC50 Ref/EC50 antibody [6] [%] | EC50 [7] [µg/mL] | IC50 [8] [µg/mL]
1 | Chi-46 (antibody, V domains shown, chimeric) VH: DVKLVESGGGLVKLGGSLKLSCAASGFTFSSYHMSWVRQTPEKRLELVAAINSNVISTYYLDTVKGRFTISRDNAKNTLYLQMSSLKSEDTALYYCARHEDYYGFAMDYWGQGTSVTVSS VL: SIVMTQTPKFLLVSAGDRVTITCKASQSVSNDVAWYQQKPGQSPKLLMYYVSNRFTGVPDRFTGSGYGTDFTFTINTVQAEDLAVYFCQQAYRSPWTFGGGTKLEIK | 107 | 388 | 0.00326 | 132 | 0.8 | 0.00701 | 4610 | 0.433 | 0.8
2 | Chi-47 (antibody, V domains shown, chimeric) VH: DVKLVESGGGLVKLGGSLKLSCAASGFTFSSYHMSWVRQTPEKRLELVAAINSNVISTYYLDTVKGRFTISRDNAKNTLYLQMSSLKSEDTALYYCARHEDYYGFAMDYWGQGTSVTVSS VL: SIVMTQTPKFLLVSAGDRVTITCKASQSVTNDVAWYQQKPGQSPKLLMYYVSNHYTGVPDRFIGSGYGTDFTFTISTVQAEDLAVYFCQQAYRSPWTFGGGTKLEIK | 113 | 600 | 0.00309 | 121 | 0.876 | 0.014 | 2230 | 0.28 | 0.876
3 | Chi-53 (antibody, V domains shown, chimeric) VH: DVKLVESGGGLVKLGGSLKLSCAASGFTFSSYHMSWIRQTPEKRLELVAAINSNGINTYYLDTVKGRFTISRDNAKNTLYLQMSSLKSEDTALYYCARHEDYYGFAMDYWGQGTSVTVSS VL: SIVMTQTPKFLLVSAGDRVTITCKASQSVSNDVAWYQEKPGQSPKLLMYYVSHRFTGVPDRFTGSGYGTDFTFTINTVQAEDLAVYFCHQAYRSPWTFGGGTKLEIK | 106 | 268 | 0.0033 | 108 | 0.979 | 0.0129 | 2430 | 0.627 | 0.979
4 | Chi-55 (antibody, V domains shown, chimeric) VH: DVKLVESGGGLVKLGGSLKLSCAASGFTFSSYHMSWIRQTPEKRLELVAAINSNGINTYYLDTVKGRFTISRDNAKNTLYLQMSSLKSEDTALYYCARHEDYYGFAMDYWGQGTSVTVSS VL: SIVMTQTPKFLLVSAGDRVTITCKASQSVTNDVAWYQQKPGQSPKLLMYYVSNHYTGVPDRFIGSGYGTDFTFTISTVQAEDLAVYFCQQAYRSPWTFGGGTKLEIK | 100 | 3050 | 0.00419 | 104 | 1.02 | 0.0131 | 2310 | 0.14 | 1.02

Continued, values first:

Row | Relative activity (%) [1] [%] | Relative activity (%) [2] [%] | EC50 [3] [µg/mL] | Relative activity (%) [4] [%] | IC50 [5] [µg/mL] | EC50, CD112R/CD112 reporter [6] [µg/mL] | Relative activity (%), EC50 Ref/EC50 antibody [6] [%] | EC50 [7] [µg/mL] | IC50 [8] [µg/mL] | Binder
5 | 113 | 2000 | 0.00371 | 110 | 0.964 | 0.0129 | 2350 | 0.214 | 0.964 | Chi-62 (antibody, V domains shown, chimeric) VH: DVKLVESGGGLVKLGGSLKLSCAASGFTFSSYHMSWVRQTPEKRLELVAAISRDGDSTYYPDTVKGRFTISRDDAENTLYLQMSSLKSEDTALYYCSRHEDYFGFAMDSWGQGTSVTVSS VL: SIVMTQTPKFLLVSAGDRVTITCKASQSVSNDVAWYQQKPGQSPKLLMYYVSNRFTGVPDRFTGSGYGTDFTFTINTVQAEDLAVYFCQQAYRSPWTFGGGTKLEIK
6 | 88.4 | 1630 | 0.00474 | 110 | 0.959 | 0.0187 | 1390 | 0.262 | 0.959 | Chi-69 (antibody, V domains shown, chimeric) VH: DVQLVESGGGLVKLGGSLKLSCVASGFTFSSYHMSWIRQTPEKRLELVAAINSNDINTYYLDTVKGRFTISRDIAKNTLHLQMSSLKSEDTALYYCARHEDYYGFAMDYWGQGTSVTVSS VL: SIVMTQTPKFLLVSAGDRVTITCKASQSVSNDVAWYQEKPGQSPKLLMYYVSHRFTGVPDRFTGSGYGTDFTFTINTVQAEDLAVYFCHQAYRSPWTFGGGTKLEIK
7 | 94.8 | 2090 | 0.00442 | 144 | 0.733 | 0.0194 | 1470 | 0.205 | 0.733 | Chi-71 (antibody, V domains shown, chimeric) VH: DVQLVESGGGLVKLGGSLKLSCVASGFTFSSYHMSWIRQTPEKRLELVAAINSNDINTYYLDTVKGRFTISRDIAKNTLHLQMSSLKSEDTALYYCARHEDYYGFAMDYWGQGTSVTVSS VL: SIVMTQTPKFLLVSAGDRVTITCKASQSVTNDVAWYQQKPGQSPKLLMYYVSNHYTGVPDRFIGSGYGTDFTFTISTVQAEDLAVYFCQQAYRSPWTFGGGTKLEIK
